Data reported in the supplement of paper PMC5998384.

Columns and labels:
HeLa Kyoto [1] = assay: solubility change mitosis vs G1/S (difference of NP-40 vs SDS log2 ratios) (log2 ratio difference); higher = more soluble in mitosis
HeLa Kyoto [2] = assay: thermal stability score vs G1/S (z-score of summed log2 fold changes over temperatures); higher = more thermally stable than in G1/S
HeLa Kyoto [3] = assay: melting temperature (median over replicates), in situ; higher = more thermally stable
HeLa Kyoto [4] = assay: solubility in G1/S (NP-40 vs SDS abundance) (log2 ratio); higher = more soluble; settings: cell cycle stage: G1/S
[5] = cell cycle stage: early G1 (4.5 h after nocodazole release)
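For melting temperature (median over replicates), in situ in this document: HeLa Kyoto cells synchronized by double thymidine or nocodazole block, proteins quantified by TMT10plex mass spectrometry, three independent biological replicates.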
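For solubility change mitosis vs G1/S (difference of NP-40 vs SDS log2 ratios) in this document: synchronized HeLa Kyoto cells (double thymidine block for G1/S, nocodazole release for mitosis), protein amounts in NP-40 versus SDS lysates quantified by mass spectrometry, three biological replicates.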
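For solubility in G1/S (NP-40 vs SDS abundance) in this document: HeLa Kyoto cells arrested at G1/S by double thymidine block, proteins quantified by TMT10plex mass spectrometry in mild NP-40 versus SDS extracts, three biological replicates.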
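For thermal stability score vs G1/S (z-score of summed log2 fold changes over temperatures) in this document: synchronized HeLa Kyoto cells, proteins quantified by TMT10plex mass spectrometry, three biological replicates, mitosis taken 0.5 h after nocodazole release, G1/S directly after double thymidine block.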

Sequence	solubility change mitosis (log2) (HeLa Kyoto [1])	thermal stability score (HeLa Kyoto [2]; [5])	thermal stability score (HeLa Kyoto [2]; cell cycle stage: mitosis)	melting temperature (HeLa Kyoto [3]; cell cycle stage: G1/S) [°C]	melting temperature (HeLa Kyoto [3]; cell cycle stage: mitosis) [°C]	solubility in G1/S (log2) (HeLa Kyoto [4])
MPCGEDWLSHPLGIVQGFFAQNGVNPDWEKKVIEYFKEKLKENNAPKWVPSLNEVPLHYLKPNSFVKFRCMIQDMFDPEFYMGVYETVNQNTKAHVLHFGKYRDVAECGPQQELDLNSPRNTTLERQTFYCVPVPGESTWVKEAYVNANQARVSPSTSYTPSRHKRSYEDDDDMDLQPNKQKDQHAGARQAGSVGGLQWCGEPKRLETEASTGQQLNSLNLSSPFDLNFPLPGEKGPACLVKVYEDWDCFKVNDILELYGILSVDPVLSILNNDERDASALLDPMECTDTAEEQRVHSPPASLVPRIHVILAQKLQHINPLLPACLNKEESKTCKFVSSFMSELSPVRAELLGFLTHALLGDSLAAEYLILHLISTVYTRRDVLPLGKFTVNLSGCPRNSTFTEHLYRIIQHLVPASFRLQMTIENMNHLKFIPHKDYTANRLVSGLLQLPSNTSLVIDETLLEQGQLDTPGVHNVTALSNLITWQKVDYDFSYHQMEFPCNINVFITSEGRSLLPADCQIHLQPQLIPPNMEEYMNSLLSAVLPSVLNKFRIYLTLLRFLEYSISDEITKAVEDDFVEMRKNDPQSITADDLHQLLVVARCLSLSAGQTTLSRERWLRAKQLESLRRTRLQQQKCVNGNEL [MCMBP]	-0.11	0.0238	2.25	49.2	50.1	0.324
MPDYLGADQRKTKEDEKDDKPIRALDEGDIALLKTYGQSTYSRQIKQVEDDIQQLLKKINELTGIKESDTGLAPPALWDLAADKQTLQSEQPLQVARCTKIINADSEDPKYIINVKQFAKFVVDLSDQVAPTDIEEGMRVGVDRNKYQIHIPLPPKIDPTVTMMQVEEKPDVTYSDVGGCKEQIEKLREVVETPLLHPERFVNLGIEPPKGVLLFGPPGTGKTLCARAVANRTDACFIRVIGSELVQKYVGEGARMVRELFEMARTKKACLIFFDEIDAIGGARFDDGAGGDNEVQRTMLELINQLDGFDPRGNIKVLMATNRPDTLDPALMRPGRLDRKIEFSLPDLEGRTHIFKIHARSMSVERDIRFELLARLCPNSTGAEIRSVCTEAGMFAIRARRKIATEKDFLEAVNKVIKSYAKFSATPRYMTYN [PSMC2]	-0.143	1.24	0.521	53.2	52	0.358
MPEEMDKPLISLHLVDSDSSLAKVPDEAPKVGILGSGDFARSLATRLVGSGFKVVVGSRNPKRTARLFPSAAQVTFQEEAVSSPEVIFVAVFREHYSSLCSLSDQLAGKILVDVSNPTEQEHLQHRESNAEYLASLFPTCTVVKAFNVISAWTLQAGPRDGNRQVPICGDQPEAKRAVSEMALAMGFMPVDMGSLASAWEVEAMPLRLLPAWKVPTLLALGLFVCFYAYNFVRDVLQPYVQESQNKFFKLPVSVVNTTLPCVAYVLLSLVYLPGVLAAALQLRRGTKYQRFPDWLDHWLQHRKQIGLLSFFCAALHALYSFCLPLRRAHRYDLVNLAVKQVLANKSHLWVEEEVWRMEIYLSLGVLALGTLSLLAVTSLPSIANSLNWREFSFVQSSLGFVALVLSTLHTLTYGWTRAFEESRYKFYLPPTFTLTLLVPCVVILAKALFLLPCISRRLARIRRGWERESTIKFTLPTDHALAEKTSHV [STEAP3]	-0.0119	-0.269	-2.25	53.3	52.4	-0.128
MPELAVQKVVVHPLVLLSVVDHFNRIGKVGNQKRVVGVLLGSWQKKVLDVSNSFAVPFDEDDKDDSVWFLDHDYLENMYGMFKKVNARERIVGWYHTGPKLHKNDIAINELMKRYCPNSVLVIIDVKPKDLGLPTEAYISVEEVHDDGTPTSKTFEHVTSEIGAEEAEEVGVEHLLRDIKDTTVGTLSQRITNQVHGLKGLNSKLLDIRSYLEKVATGKLPINHQIIYQLQDVFNLLPDVSLQEFVKAFYLKTNDQMVVVYLASLIRSVVALHNLINNKIANRDAEKKEGQEKEESKKDRKEDKEKDKDKEKSDVKKEEKKEKK [PSMD7]	0.00337	-0.335	-1.17	53.9	51.6	0.121
MPFDFRRFDIYRKVPKDLTQPTYTGAIISICCCLFILFLFLSELTGFITTEVVNELYVDDPDKDSGGKIDVSLNISLPNLHCELVGLDIQDEMGRHEVGHIDNSMKIPLNNGAGCRFEGQFSINKVPGNFHVSTHSATAQPQNPDMTHVIHKLSFGDTLQVQNIHGAFNALGGADRLTSNPLASHDYILKIVPTVYEDKSGKQRYSYQYTVANKEYVAYSHTGRIIPAIWFRYDLSPITVKYTERRQPLYRFITTICAIIGGTFTVAGILDSCIFTASEAWKKIQLGKMH [ERGIC1]	-0.178	-0.418	-0.585	55.2	55.6	0.18
MPFLELDTNLPANRVPAGLEKRLCAAAASILGKPADRVNVTVRPGLAMALSGSTEPCAQLSISSIGVVGTAEDNRSHSAHFFEFLTKELALGQDRILIRFFPLESWQIGKIGTVMTFL [DDT]	-0.0844	-2.25	-2.27	56.1	57.4	0.57
MPFPFGKSHKSPADIVKNLKESMAVLEKQDISDKKAEKATEEVSKNLVAMKEILYGTNEKEPQTEAVAQLAQELYNSGLLSTLVADLQLIDFEGKKDVAQIFNNILRRQIGTRTPTVEYICTQQNILFMLLKGYESPEIALNCGIMLRECIRHEPLAKIILWSEQFYDFFRYVEMSTFDIASDAFATFKDLLTRHKLLSAEFLEQHYDRFFSEYEKLLHSENYVTKRQSLKLLGELLLDRHNFTIMTKYISKPENLKLMMNLLRDKSRNIQFEAFHVFKVFVANPNKTQPILDILLKNQAKLIEFLSKFQNDRTEDEQFNDEKTYLVKQIRDLKRPAQQEA [CAB39]	-0.178	0.362	2.14	54.3	55.4	0.0309
MPGGLLLGDVAPNFEANTTVGRIRFHDFLGDSWGILFSHPRDFTPVCTTELGRAAKLAPEFAKRNVKLIALSIDSVEDHLAWSKDINAYNCEEPTEKLPFPIIDDRNRELAILLGMLDPAEKDEKGMPVTARVVFVFGPDKKLKLSILYPATTGRNFDEILRVVISLQLTAEKRVATPVDWKDGDSVMVLPTIPEEEAKKLFPKGVFTKELPSGKKYLRYTPQP [PRDX6]	0.118	-1.5	-3.41	53.9	54.5	0.444
MPGHLQEGFGCVVTNRFDQLFDDESDPFEVLKAAENKKKEAGGGGVGGPGAKSAAQAAAQTNSNAAGKQLRKESQKDRKNPLPPSVGVVDKKEETQPPVALKKEGIRRVGRRPDQQLQGEGKIIDRRPERRPPRERRFEKPLEEKGEGGEFSVDRPIIDRPIRGRGGLGRGRGGRGRGMGRGDGFDSRGKREFDRHSGSDRSSFSHYSGLKHEDKRGGSGSHNWGTVKDELTESPKYIQKQISYNYSDLDQSNVTEETPEGEEHHPVADTENKENEVEEVKEEGPKEMTLDEWKAIQNKDRAKVEFNIRKPNEGADGQWKKGFVLHKSKSEEAHAEDSVMDHHFRKPANDITSQLEINFGDLGRPGRGGRGGRGGRGRGGRPNRGSRTDKSSASAPDVDDPEAFPALA [SERBP1]	0.395	-1.78	-8.72	58.8		-0.123
MPGMVLFGRRWAIASDDLVFPGFFELVVRVLWWIGILTLYLMHRGKLDCAGGALLSSYLIVLMILLAVVICTVSAIMCVSMRGTICNPGPRKSMSKLLYIRLALFFPEMVWASLGAAWVADGVQCDRTVVNGIIATVVVSWIIIAATVVSIIIVFDPLGGKMAPYSSAGPSHLDSHDSSQLLNGLKTAATSVWETRIKLLCCCIGKDDHTRVAFSSTAELFSTYFSDTDLVPSDIAAGLALLHQQQDNIRNNQEPAQVVCHAPGSSQEADLDAELENCHHYMQFAAAAYGWPLYIYRNPLTGLCRIGGDCCRSRTTDYDLVGGDQLNCHFGSILHTTGLQYRDFIHVSFHDKVYELPFLVALDHRKESVVVAVRGTMSLQDVLTDLSAESEVLDVECEVQDRLAHKGISQAARYVYQRLINDGILSQAFSIAPEYRLVIVGHSLGGGAAALLATMLRAAYPQVRCYAFSPPRGLWSKALQEYSQSFIVSLVLGKDVIPRLSVTNLEDLKRRILRVVAHCNKPKYKILLHGLWYELFGGNPNNLPTELDGGDQEVLTQPLLGEQSLLTRWSPAYSFSSDSPLDSSPKYPPLYPPGRIIHLQEEGASGRFGCCSAAHYSAKWSHEAEFSKILIGPKMLTDHMPDILMRALDSVVSDRAACVSCPAQGVSSVDVA [DAGLB]	-0.129	-0.332	-1.16	54.6	53.1	-0.195
MPHFTVVPVDGPRRGDYDNLEGLSWVDYGERAELDDSDGHGNHRESSPFLSPLEASRGIDYYDRNLALFEEELDIRPKVSSLLGKLVSYTNLTQGAKEHEEAESGEGTRRRAAEAPSMGTLMGVYLPCLQNIFGVILFLRLTWMVGTAGVLQALLIVLICCCCTLLTAISMSAIATNGVVPAGGSYFMISRSLGPEFGGAVGLCFYLGTTFAAAMYILGAIEILLTYIAPPAAIFYPSGAHDTSNATLNNMRVYGTIFLTFMTLVVFVGVKYVNKFASLFLACVIISILSIYAGGIKSIFDPPVFPVCMLGNRTLSRDQFDICAKTAVVDNETVATQLWSFFCHSPNLTTDSCDPYFMLNNVTEIPGIPGAAAGVLQENLWSAYLEKGDIVEKHGLPSADAPSLKESLPLYVVADIATSFTVLVGIFFPSVTGIMAGSNRSGDLRDAQKSIPVGTILAIITTSLVYFSSVVLFGACIEGVVLRDKYGDGVSRNLVVGTLAWPSPWVIVIGSFFSTCGAGLQSLTGAPRLLQAIAKDNIIPFLRVFGHGKVNGEPTWALLLTALIAELGILIASLDMVAPILSMFFLMCYLFVNLACAVQTLLRTPNWRPRFKYYHWALSFLGMSLCLALMFVSSWYYALVAMLIAGMIYKYIEYQGAEKEWGDGIRGLSLSAARYALLRLEEGPPHTKNWRPQLLVLLKLDEDLHVKYPRLLTFASQLKAGKGLTIVGSVIQGSFLESYGEAQAAEQTIKNMMEIEKVKGFCQVVVASKVREGLAHLIQSCGLGGMRHNSVVLGWPYGWRQSEDPRAWKTFIDTVRCTTAAHLALLVPKNIAFYPSNHERYLEGHIDVWWIVHDGGMLMLLPFLLRQHKVWRKCRMRIFTVAQMDDNSIQMKKDLAVFLYHLRLEAEVEVVEMHNSDISAYTYERTLMMEQRSQMLRQMRLTKTEREREAQLVKDRHSALRLESLYSDEEDESAVGADKIQMTWTRDKYMTETWDPSHAPDNFRELVHIKPDQSNVRRMHTAVKLNEVIVTRSHDARLVLLNMPGPPRNSEGDENYMEFLEVLTEGLERVLLVRGGGREVITIYS [SLC12A4]	-0.148	0.505	0.0338	54.3	54.2	0.0648
MPHIDNDVKLDFKDVLLRPKRSTLKSRSEVDLTRSFSFRNSKQTYSGVPIIAANMDTVGTFEMAKVLCKFSLFTAVHKHYSLVQWQEFAGQNPDCLEHLAASSGTGSSDFEQLEQILEAIPQVKYICLDVANGYSEHFVEFVKDVRKRFPQHTIMAGNVVTGEMVEELILSGADIIKVGIGPGSVCTTRKKTGVGYPQLSAVMECADAAHGLKGHIISDGGCSCPGDVAKAFGAGADFVMLGGMLAGHSESGGELIERDGKKYKLFYGMSSEMAMKKYAGGVAEYRASEGKTVEVPFKGDVEHTIRDILGGIRSTCTYVGAAKLKELSRRTTFIRVTQQVNPIFSEAC [GMPR2]	-0.137	-0.68	-2.3	56.3	59.4	0.0286
